Experimental findings from patent publication US20160032014A1 (Amgen, published 2016) are described below.

Assay [1] addresses T1, human PCSK9 (self-cleaved, mature, secreted PCSK9 comprising amino acids 31 to 692 of SEQ ID NO: 2) (human, UniProt Q8NBP7 31-692, biotinylated in the ELISAs).
T1 construct: Limits 31-692 are stated for the immunogen; the assays only say human PCSK9; also called huPCSK9; rhu PCSK9
The assay can be described thus: solution equilibrium, BIAcore. (In SPR one partner is held on a chip, and binding of the other changes the refractive index at the surface.)

For assay [2], the target named is T1, human PCSK9 (self-cleaved, mature, …). Briefly: solution equilibrium, BIAcore, pH 5.5.
The target is the same in assay [3]. Briefly: solution equilibrium, BIAcore, pH 7.4.
The target is the same in assay [4]. The assay can be described thus: SPR pH 7.4.
Assay [5] shares this target. The assay can be described thus: SPR pH 7.4. The source holds these as a separate data set.

Where two headings read alike, the source gives them in different places.

B1: SS-14894 (antibody, V domains shown)
VH: not shown
VL: DIVMTQSPLSLPVTPGEPASISCRSSQSLLHSGNGYNYLDWYLQKPGQSPQLLIYLGLNRASGVPDRFSGSGSGTDFTLKISRVEAEDVGVYYCMQALQTPLTFGGGTKVEIKR
notes: HC I107M, LC G33, S57L
Take B1: the “KD ratio pH 5.5/pH 7.4” value in assay [1] came out at 8.8. Moreover, the Kd is 1.5 nM in assay [2] and 0.17 nM in assay [3].

B2: SS-15516 (antibody, V domains shown)
VH: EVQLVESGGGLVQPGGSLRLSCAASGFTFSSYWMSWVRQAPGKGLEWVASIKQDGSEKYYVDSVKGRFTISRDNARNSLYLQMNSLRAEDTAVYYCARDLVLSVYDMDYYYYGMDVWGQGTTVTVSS
VL: DIVMTQSPLSLPVTPGEPASISCRSSQSLLHSGNGYNYLDWYLQKPGQSPQLLIYLGFNRASGVPDRFSGSGSGTDFTLKISRVEAEDVGVYYCMQAIHTPLTFGGGTKVEIKR
notes: HC VH6, LC G33, S57F, L97I, Q98H
Take B2: the “KD ratio pH 5.5/pH 7.4” value in assay [1] amounted to 8.3. In addition, the Kd in assay [2] is 1 nM; in assay [3] it was 0.12 nM.

B3: SS-15499 (antibody, V domains shown)
VH: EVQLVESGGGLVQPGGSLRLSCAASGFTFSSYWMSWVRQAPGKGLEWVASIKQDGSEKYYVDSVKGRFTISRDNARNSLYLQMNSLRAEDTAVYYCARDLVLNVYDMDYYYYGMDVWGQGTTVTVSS
VL: DIVMTQSPLSLPVTPGEPASISCRSSQSLLHSGNGYNYLDWYLQKPGQSPQLLIYLGLNRASGVPDRFSGSGSGTDFTLKISRVEAEDVGVYYCMQAIHTPLTFGGGTKVEIKR
notes: No entry of its own
In the case of B3, in assay [4], the Kd came to 0.199 nM, the koff is 5.98e-05 s⁻¹ and the kon was found to be 301000 M⁻¹ s⁻¹. In assay [5], this molecule displayed a Kd of 0.199 nM, a koff of 5.98e-05 s⁻¹ and an on-rate (kon) of 301000 M⁻¹ s⁻¹.

B4: SS-15498 (antibody, V domains shown)
VH: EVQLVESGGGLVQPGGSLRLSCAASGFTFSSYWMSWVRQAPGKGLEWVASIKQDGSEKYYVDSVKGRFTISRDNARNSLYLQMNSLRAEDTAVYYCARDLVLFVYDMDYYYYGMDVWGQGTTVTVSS
VL: DIVMTQSPLSLPVTPGEPASISCRSSQSLLHSGNGYNYLDWYLQKPGQSPQLLIYLGLNRASGVPDRFSGSGSGTDFTLKISRVEAEDVGVYYCMQAIHTPLTFGGGTKVEIKR
notes: No entry of its own
B4: in assay [4], the affinity, expressed as Kd, was 0.123 nM; the koff came out at 4.14e-05 s⁻¹; the kon came out at 335000 M⁻¹ s⁻¹. In assay [5], this molecule returned a Kd of 0.123 nM, a koff of 4.14e-05 s⁻¹ and a kon of 335000 M⁻¹ s⁻¹.

B5: SS-15515 (antibody, V domains shown)
VH: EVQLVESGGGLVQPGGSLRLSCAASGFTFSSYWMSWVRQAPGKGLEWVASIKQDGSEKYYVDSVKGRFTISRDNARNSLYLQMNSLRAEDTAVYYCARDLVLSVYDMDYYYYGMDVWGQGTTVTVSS
VL: DIVMTQSPLSLPVTPGEPASISCRSSQSLLHSGNGYNYLDWYLQKPGQSPQLLIYLGMNRASGVPDRFSGSGSGTDFTLKISRVEAEDVGVYYCMQAIHTPLTFGGGTKVEIKR
notes: HC VH6, LC G33, S57M, L97I, Q98H
Take B5: the “KD ratio pH 5.5/pH 7.4” value in assay [1] is 12.5. The dissociation constant Kd turned out to be 1.5 nM in assay [2] and 0.12 nM in assay [3].

B6: 8A3 variant HC I107M / LC N33Y, Y35H, S57L, S61H (antibody, V domains shown)
VH: not shown
VL: DIVMTQSPLSLPVTPGEPASISCRSSQSLLHSYGHNYLDWYLQKPGQSPQLLIYLGLNRAHGVPDRFSGSGSGTDFTLKISRVEAEDVGVYYCMQALQTPLTFGGGTKVEIKR
With B6, in assay [4], the Kd amounted to 0.572 nM, the koff stood at 0.000326 s⁻¹ and the kon stood at 570000 M⁻¹ s⁻¹. Also, in assay [5], binding was put at a Kd of 0.572 nM, the koff is 0.000326 s⁻¹ and the kon amounted to 570000 M⁻¹ s⁻¹.

B7: SS-15495 (antibody, V domains shown)
VH: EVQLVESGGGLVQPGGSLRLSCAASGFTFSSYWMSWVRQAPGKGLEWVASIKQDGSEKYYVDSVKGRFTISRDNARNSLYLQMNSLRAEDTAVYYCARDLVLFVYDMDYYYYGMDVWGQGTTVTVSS
VL: DIVMTQSPLSLPVTPGEPASISCRSSQSLLHSFGHNYLDWYLQKPGQSPQLLIYLGLNRAHGVPDRFSGSGSGTDFTLKISRVEAEDVGVYYCMQALQTPLTFGGGTKVEIKR
notes: HC M103F/I107M, LC N33F, Y35H, S57L, S61H
In the case of B7, in assay [4], binding was put at a Kd of 0.285 nM, the koff amounted to 0.000152 s⁻¹ and the kon stood at 534000 M⁻¹ s⁻¹. In addition, in assay [5], binding was put at a Kd of 0.285 nM, the koff came to 0.000152 s⁻¹ and the on-rate (kon) is 534000 M⁻¹ s⁻¹.

B8: SS-13993 (antibody, V domains shown)
VH: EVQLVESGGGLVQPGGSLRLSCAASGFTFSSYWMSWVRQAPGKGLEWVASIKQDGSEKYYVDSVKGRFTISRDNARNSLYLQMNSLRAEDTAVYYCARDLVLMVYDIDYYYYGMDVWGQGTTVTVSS
VL: DIVMTQSPLSLPVTPGEPASISCRSSQSLLHSNGHNYLDWYLQKPGQSPQLLIYLGLNRASGVPDRFSGSGHGTDFTLKISRVEAEDVGVYYCMQALQTPLTFGGGTKVEIKR
notes: HC WT, LC Tyr38(35)His, Ser68(57)Leu, Ser83(72)His; also called C02
As for B8, the “KD ratio pH 5.5/pH 7.4” value in assay [1] was found to be 12.2. For the same molecule, the Kd was found to be 2.8 nM in assay [2] and 0.23 nM in assay [3].

B9: SS-15501 (antibody, V domains shown)
VH: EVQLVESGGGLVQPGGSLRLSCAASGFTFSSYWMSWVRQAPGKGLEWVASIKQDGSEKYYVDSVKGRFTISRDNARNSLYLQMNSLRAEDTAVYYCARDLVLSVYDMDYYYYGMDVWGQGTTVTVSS
VL: DIVMTQSPLSLPVTPGEPASISCRSSQSLLHSFGHNYLDWYLQKPGQSPQLLIYLGLNRAHGVPDRFSGSGSGTDFTLKISRVEAEDVGVYYCMQALQTPLTFGGGTKVEIKR
On to B9, for which, in assay [4], the Kd was 0.804 nM, the koff worked out at 0.000578 s⁻¹ and the kon was 719000 M⁻¹ s⁻¹. In assay [5], this molecule gave a Kd of 0.804 nM, a koff of 0.000578 s⁻¹ and a kon of 719000 M⁻¹ s⁻¹.

B10: 8A3 variant HC M103S/I107M / LC N33Y, Y35H, S57L, S61H (antibody, V domains shown)
VH: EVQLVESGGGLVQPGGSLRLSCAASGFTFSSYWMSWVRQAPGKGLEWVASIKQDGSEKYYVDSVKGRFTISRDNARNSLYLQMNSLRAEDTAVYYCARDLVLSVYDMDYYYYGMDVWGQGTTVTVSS
VL: DIVMTQSPLSLPVTPGEPASISCRSSQSLLHSYGHNYLDWYLQKPGQSPQLLIYLGLNRAHGVPDRFSGSGSGTDFTLKISRVEAEDVGVYYCMQALQTPLTFGGGTKVEIKR
With B10, in assay [4], the affinity, expressed as Kd, was 1.28 nM; the koff worked out at 0.000758 s⁻¹; the kon came to 594000 M⁻¹ s⁻¹. In assay [5], this molecule registered a dissociation constant (Kd) of 1.28 nM, a koff of 0.000758 s⁻¹ and an on-rate constant (kon) of 594000 M⁻¹ s⁻¹.

B11: 8A3 variant HC M103N/I107M / LC N33Y, Y35H, S57L, S61H (antibody, V domains shown)
VH: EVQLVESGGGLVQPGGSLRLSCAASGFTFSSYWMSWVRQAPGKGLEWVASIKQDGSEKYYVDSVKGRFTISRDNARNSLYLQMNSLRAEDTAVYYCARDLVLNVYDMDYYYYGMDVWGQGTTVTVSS
VL: DIVMTQSPLSLPVTPGEPASISCRSSQSLLHSYGHNYLDWYLQKPGQSPQLLIYLGLNRAHGVPDRFSGSGSGTDFTLKISRVEAEDVGVYYCMQALQTPLTFGGGTKVEIKR
B11: in assay [4], the Kd was 0.819 nM, the koff stood at 0.000425 s⁻¹ and the kon was determined as 519000 M⁻¹ s⁻¹. In addition, in assay [5], the affinity, expressed as Kd, was 0.819 nM; the koff is 0.000425 s⁻¹; the kon was 519000 M⁻¹ s⁻¹.

B12: SS-15500 (antibody, V domains shown)
VH: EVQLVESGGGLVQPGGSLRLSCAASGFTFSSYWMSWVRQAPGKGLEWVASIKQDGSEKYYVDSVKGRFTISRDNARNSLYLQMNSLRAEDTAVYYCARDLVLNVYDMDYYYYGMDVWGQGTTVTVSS
VL: DIVMTQSPLSLPVTPGEPASISCRSSQSLLHSYGHNYLDWYLQKPGQSPQLLIYLGLNRAHGVPDRFSGSGSGTDFTLKISRVEAEDVGVYYCMQALQTPLTFGGGTKVEIKR
In assay [4], B12 yielded a Kd of 0.459 nM, an off-rate (koff) of 0.000304 s⁻¹ and a kon of 663000 M⁻¹ s⁻¹. In assay [5], this molecule had a Kd of 0.459 nM, a koff of 0.000304 s⁻¹ and a kon of 663000 M⁻¹ s⁻¹.

B13: SS-15504 (antibody, V domains shown)
VH: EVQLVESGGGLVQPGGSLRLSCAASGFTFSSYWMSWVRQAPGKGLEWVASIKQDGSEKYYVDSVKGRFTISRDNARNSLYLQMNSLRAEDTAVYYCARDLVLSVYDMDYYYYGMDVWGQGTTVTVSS
VL: DIVMTQSPLSLPVTPGEPASISCRSSQSLLHSNGHNYLDWYLQKPGQSPQLLIYLGLNRAHGVPDRFSGSGSGTDFTLKISRVEAEDVGVYYCMQALQTPLTFGGGTKVEIKR
notes: HC M103S/I107M, LC Y35H, S57L, S61H
On to B13, for which, in assay [4], the Kd is 0.232 nM, the off-rate (koff) stood at 8.26e-05 s⁻¹ and the kon came out at 356000 M⁻¹ s⁻¹. In assay [5], this molecule came in with a dissociation constant Kd of 0.232 nM, a koff of 8.26e-05 s⁻¹ and a kon of 356000 M⁻¹ s⁻¹.

B14: 8A3 variant HC M103F/I107M / LC N33Y, Y35H, S57L, S61H (antibody, V domains shown)
VH: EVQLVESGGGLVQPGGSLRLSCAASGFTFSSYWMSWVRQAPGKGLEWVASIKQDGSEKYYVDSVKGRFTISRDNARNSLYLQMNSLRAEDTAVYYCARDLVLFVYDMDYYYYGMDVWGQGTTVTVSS
VL: DIVMTQSPLSLPVTPGEPASISCRSSQSLLHSYGHNYLDWYLQKPGQSPQLLIYLGLNRAHGVPDRFSGSGSGTDFTLKISRVEAEDVGVYYCMQALQTPLTFGGGTKVEIKR
For B14, in assay [4], the Kd worked out at 0.528 nM, the koff came out at 0.000253 s⁻¹ and the kon turned out to be 480000 M⁻¹ s⁻¹. In assay [5], this molecule came in with a Kd of 0.528 nM, a koff of 0.000253 s⁻¹ and a kon of 480000 M⁻¹ s⁻¹.

B15: SS-15506 (antibody, V domains shown)
VH: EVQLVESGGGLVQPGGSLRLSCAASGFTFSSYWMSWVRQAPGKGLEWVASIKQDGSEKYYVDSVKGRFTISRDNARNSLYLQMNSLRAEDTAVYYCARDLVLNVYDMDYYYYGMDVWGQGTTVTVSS
VL: DIVMTQSPLSLPVTPGEPASISCRSSQSLLHSNGHNYLDWYLQKPGQSPQLLIYLGLNRAHGVPDRFSGSGSGTDFTLKISRVEAEDVGVYYCMQALQTPLTFGGGTKVEIKR
notes: HC M103N/I107M, LC Y35H, S57L, S61H
Consider B15, for which, in assay [4], the affinity, expressed as Kd, was 0.245 nM; the koff turned out to be 5.89e-05 s⁻¹; the kon was 240000 M⁻¹ s⁻¹. In assay [5], the Kd worked out at 0.245 nM, the off-rate constant (koff) is 5.89e-05 s⁻¹ and the kon is 240000 M⁻¹ s⁻¹.

B16: SS-15505 (antibody, V domains shown)
VH: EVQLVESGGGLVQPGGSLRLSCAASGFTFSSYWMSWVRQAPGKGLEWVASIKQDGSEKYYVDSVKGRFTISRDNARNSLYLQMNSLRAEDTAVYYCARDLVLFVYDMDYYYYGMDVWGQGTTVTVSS
VL: DIVMTQSPLSLPVTPGEPASISCRSSQSLLHSNGHNYLDWYLQKPGQSPQLLIYLGLNRAHGVPDRFSGSGSGTDFTLKISRVEAEDVGVYYCMQALQTPLTFGGGTKVEIKR
notes: HC M103F/I107M, LC Y35H, S57L, S61H
In assay [4], B16 returned a Kd of 0.0763 nM, a koff of 1.98e-05 s⁻¹ and a kon of 260000 M⁻¹ s⁻¹. In assay [5], this molecule showed a dissociation constant Kd of 0.0763 nM, a koff of 1.98e-05 s⁻¹ and a kon of 260000 M⁻¹ s⁻¹.

B17: 8A3 variant HC WT / LC N33Y, Y35H, S57L, S61H (antibody, V domains shown)
VH: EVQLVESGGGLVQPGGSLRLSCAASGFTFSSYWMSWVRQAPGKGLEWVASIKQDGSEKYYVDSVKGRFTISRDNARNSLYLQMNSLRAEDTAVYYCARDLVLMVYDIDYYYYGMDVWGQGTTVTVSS
VL: DIVMTQSPLSLPVTPGEPASISCRSSQSLLHSYGHNYLDWYLQKPGQSPQLLIYLGLNRAHGVPDRFSGSGSGTDFTLKISRVEAEDVGVYYCMQALQTPLTFGGGTKVEIKR
As to B17, in assay [4], the Kd was 2.81 nM, the koff worked out at 0.00115 s⁻¹ and the kon is 410000 M⁻¹ s⁻¹. In addition, in assay [5], binding was put at a Kd of 2.81 nM, the koff turned out to be 0.00115 s⁻¹ and the kon is 410000 M⁻¹ s⁻¹.

B18: SS-13991 (antibody, V domains shown)
VH: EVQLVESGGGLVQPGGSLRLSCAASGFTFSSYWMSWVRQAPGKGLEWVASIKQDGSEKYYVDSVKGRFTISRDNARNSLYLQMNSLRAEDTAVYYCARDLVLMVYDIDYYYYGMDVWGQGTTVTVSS
VL: DIVMTQSPLSLPVTPGEPASISCRSSQSLLHSNGHNYLDWYLQKPGQSPQLLIYLGLNRAHGVPDRFSGSGSGTDFTLKISRVEAEDVGVYYCMQALQTPLTFGGGTKVEIKR
notes: HC WT, LC Tyr38(35)His, Ser68(57)Leu, Ser72(61)His; also called A02
For the molecule B18, in assay [1], the “KD ratio pH 5.5/pH 7.4” value is 9.7. Moreover, the Kd was found to be 2.8 nM in assay [2] and 0.29 nM in assay [3].

B19: SS-15508 (antibody, V domains shown)
VH: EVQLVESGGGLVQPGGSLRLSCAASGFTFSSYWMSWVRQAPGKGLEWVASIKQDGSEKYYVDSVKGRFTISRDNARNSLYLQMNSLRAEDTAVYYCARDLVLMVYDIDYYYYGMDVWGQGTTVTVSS
VL: DIVMTQSPLSLPVTPGEPASISCRSSQSLLHSFGHNYLDWYLQKPGQSPQLLIYLGLNRAHGVPDRFSGSGSGTDFTLKISRVEAEDVGVYYCMQALQTPLTFGGGTKVEIKR
notes: HC WT, LC N33F, Y35H, S57L, S61H
On to B19, for which, in assay [4], the affinity, expressed as Kd, was 1.57 nM; the dissociation rate constant (koff) came out at 0.00092 s⁻¹; the kon turned out to be 585000 M⁻¹ s⁻¹. Besides, in assay [5], the dissociation constant (Kd) was 1.57 nM, the koff was determined as 0.00092 s⁻¹ and the kon is 585000 M⁻¹ s⁻¹.

B20: SS-15496 (antibody, V domains shown)
VH: not shown
VL: DIVMTQSPLSLPVTPGEPASISCRSSQSLLHSFGHNYLDWYLQKPGQSPQLLIYLGLNRAHGVPDRFSGSGSGTDFTLKISRVEAEDVGVYYCMQALQTPLTFGGGTKVEIKR
notes: HC I107M, LC N33F, Y35H, S57L, S61H
As for B20, in assay [4], the Kd turned out to be 0.292 nM, the off-rate constant (koff) is 0.000194 s⁻¹ and the kon is 665000 M⁻¹ s⁻¹. In assay [5], this molecule gave a Kd of 0.292 nM, a koff of 0.000194 s⁻¹ and a kon of 665000 M⁻¹ s⁻¹.

As a reminder, the Kd is the free concentration of one partner at which half of the binding sites on the other are occupied at equilibrium, for simple one-to-one binding. Lower therefore signals a tighter complex. As usually defined, the koff is a measure of how fast the partners let go of each other. One may read the kon as a measure of how fast the partners come together. High values mean fast association, low ones slow association.
